B1: PIP5K1C peptide 640-655 (Phosphatidylinositol 4-phosphate 5-kinase type-1 gamma), 16-mer library wild type / TLN1 PTB (TLN1 Phosphotyrosine-binding (PTB) domain, residues 309-401) (parent)
chain 1: FPTDERSWVYSPLHYS
chain 2: GVSFFLVKEKMKGKNKLVPRLLGITKECVMRVDEKTKEVIQEWNLTNIKRWAASPKSFTLDFGDYQDGYYSVQTTEGEQIAQLIAGYIDIILK
B2: RNF115 peptide 67-82 (E3 ubiquitin-protein ligase RNF115), 16-mer library wild type / MDM2 SWIB (MDM2 SWIB/MDM2 domain, residues 17-125) (parent)
chain 1: TTTHFAELWGHLDHTM
chain 2: SQIPASEQETLVRPKPLLLKLLKSVGAQKDTYTMKEVLFYLGQYIMTKRLYDEKQQHIVYCSNDLLGDLFGVPSFSVKEHRKIYTMIYRNLVVVNQQESSDSGTSVSEN

Variants of: B1
Assay: proteomic peptide phage display deep mutational scan (ProP-PD DMS): M13 P8 16-mer library selected against immobilised GST-tagged bait for four days (rounds), NGS of the eluted pools per day and pseudo-replica
Details: with TLN1 PTB (TLN1 Phosphotyrosine-binding (PTB) domain, residues 309-401); bait immobilised on MaxiSorp plates (10 µg), library pre-cleared on GST, 2 h binding at 4 °C, five washes; one round per day, days 1-4; value from days 2 and 3; keep out of graded; scale: average fractional NGS count over selection days 2 and 3

Variant | screen value
chain 1 FPTDERSWVYSPLHYH [chain 1 S16H] | 0.00034
chain 1 FPTDERSWVYSPLHYI [chain 1 S16I] | 0.00119
chain 1 FPTDERSWVYSPLHYL [chain 1 S16L] | 0.000143
chain 1 FPTDERSWVYSPLHYM [chain 1 S16M] | 0.000225
chain 1 FPTDERSWVYSPLHYN [chain 1 S16N] | 0.000165
chain 1 FPTDERSWVYSPLHYP [chain 1 S16P] | 0.000199
chain 1 FPTDERSWVYSPLHYQ [chain 1 S16Q] | 5.76e-05
chain 1 FPTDERSWVYSPLHYR [chain 1 S16R] | 0.000132
chain 1 FPTDERSWVYSPLHYT [chain 1 S16T] | 0.000518
chain 1 FPTDERSWVYSPLHYV [chain 1 S16V] | 0.000729
chain 1 FPTDERSWVYSPLHYW [chain 1 S16W] | 3.45e-05
chain 1 FPTDERSWVYSPLHYY [chain 1 S16Y] | 0.000212
chain 1 FPADERSWVYSPLHYS [chain 1 T3A] | 8.91e-05
chain 1 FPDDERSWVYSPLHYS [chain 1 T3D] | 5.93e-05
chain 1 FPGDERSWVYSPLHYS [chain 1 T3G] | 9.69e-05
chain 1 FPHDERSWVYSPLHYS [chain 1 T3H] | 0.000204
chain 1 FPIDERSWVYSPLHYS [chain 1 T3I] | 5.15e-05
chain 1 FPLDERSWVYSPLHYS [chain 1 T3L] | 0.00116
chain 1 FPMDERSWVYSPLHYS [chain 1 T3M] | 2.4e-05
chain 1 FPNDERSWVYSPLHYS [chain 1 T3N] | 8.2e-05
chain 1 FPPDERSWVYSPLHYS [chain 1 T3P] | 0.000173
chain 1 FPQDERSWVYSPLHYS [chain 1 T3Q] | 0.000354
chain 1 FPRDERSWVYSPLHYS [chain 1 T3R] | 0.000107
chain 1 FPSDERSWVYSPLHYS [chain 1 T3S] | 0.00018
chain 1 FPVDERSWVYSPLHYS [chain 1 T3V] | 4.5e-05
chain 1 FPWDERSWVYSPLHYS [chain 1 T3W] | 0.000436
chain 1 FPYDERSWVYSPLHYS [chain 1 T3Y] | 0.000733

Variant | screen value
chain 1 FPTDERSWAYSPLHYS [chain 1 V9A] | 0.000113
chain 1 FPTDERSWDYSPLHYS [chain 1 V9D] | 0.000489
chain 1 FPTDERSWEYSPLHYS [chain 1 V9E] | 0.000929
chain 1 FPTDERSWFYSPLHYS [chain 1 V9F] | 0.000141
chain 1 FPTDERSWGYSPLHYS [chain 1 V9G] | 0.000185
chain 1 FPTDERSWHYSPLHYS [chain 1 V9H] | 0.000257
chain 1 FPTDERSWIYSPLHYS [chain 1 V9I] | 5.76e-05
chain 1 FPTDERSWKYSPLHYS [chain 1 V9K] | 0.000808
chain 1 FPTDERSWLYSPLHYS [chain 1 V9L] | 0.000573
chain 1 FPTDERSWMYSPLHYS [chain 1 V9M] | 0.00044
chain 1 FPTDERSWNYSPLHYS [chain 1 V9N] | 0.00995
chain 1 FPTDERSWQYSPLHYS [chain 1 V9Q] | 0.000257
chain 1 FPTDERSWRYSPLHYS [chain 1 V9R] | 0.000353
chain 1 FPTDERSWSYSPLHYS [chain 1 V9S] | 0.000334
chain 1 FPTDERSWTYSPLHYS [chain 1 V9T] | 0.000147
chain 1 FPTDERSWWYSPLHYS [chain 1 V9W] | 0.000872
chain 1 FPTDERSWYYSPLHYS [chain 1 V9Y] | 0.000288
chain 1 FPTDERSDVYSPLHYS [chain 1 W8D] | 0
chain 1 FPTDERSFVYSPLHYS [chain 1 W8F] | 7.15e-05
chain 1 FPTDERSGVYSPLHYS [chain 1 W8G] | 0
chain 1 FPTDERSWVASPLHYS [chain 1 Y10A] | 0.000303
chain 1 FPTDERSWVDSPLHYS [chain 1 Y10D] | 0.000521
chain 1 FPTDERSWVFSPLHYS [chain 1 Y10F] | 0.000662
chain 1 FPTDERSWVHSPLHYS [chain 1 Y10H] | 6.93e-05
chain 1 FPTDERSWVISPLHYS [chain 1 Y10I] | 0.000546
chain 1 FPTDERSWVKSPLHYS [chain 1 Y10K] | 0.00109
chain 1 FPTDERSWVLSPLHYS [chain 1 Y10L] | 0.000358

Variant | screen value
chain 1 FPTDERSWVMSPLHYS [chain 1 Y10M] | 0.00032
chain 1 FPTDERSWVNSPLHYS [chain 1 Y10N] | 0.000216
chain 1 FPTDERSWVPSPLHYS [chain 1 Y10P] | 0.000394
chain 1 FPTDERSWVQSPLHYS [chain 1 Y10Q] | 0.000754
chain 1 FPTDERSWVRSPLHYS [chain 1 Y10R] | 0.000894
chain 1 FPTDERSWVSSPLHYS [chain 1 Y10S] | 0.00342
chain 1 FPTDERSWVTSPLHYS [chain 1 Y10T] | 0.00117
chain 1 FPTDERSWVVSPLHYS [chain 1 Y10V] | 0.000724
chain 1 FPTDERSWVWSPLHYS [chain 1 Y10W] | 8.84e-05
chain 1 FPTDERSWVYSPLHAS [chain 1 Y15A] | 0.000656
chain 1 FPTDERSWVYSPLHDS [chain 1 Y15D] | 0.00126
chain 1 FPTDERSWVYSPLHES [chain 1 Y15E] | 0.000347
chain 1 FPTDERSWVYSPLHFS [chain 1 Y15F] | 0.00152
chain 1 FPTDERSWVYSPLHGS [chain 1 Y15G] | 0.00057
chain 1 FPTDERSWVYSPLHHS [chain 1 Y15H] | 0.000526
chain 1 FPTDERSWVYSPLHIS [chain 1 Y15I] | 0.000186
chain 1 FPTDERSWVYSPLHKS [chain 1 Y15K] | 0.000895
chain 1 FPTDERSWVYSPLHLS [chain 1 Y15L] | 3.79e-05
chain 1 FPTDERSWVYSPLHMS [chain 1 Y15M] | 0.000141
chain 1 FPTDERSWVYSPLHNS [chain 1 Y15N] | 5.2e-05
chain 1 FPTDERSWVYSPLHPS [chain 1 Y15P] | 0.000167
chain 1 FPTDERSWVYSPLHQS [chain 1 Y15Q] | 0.000147
chain 1 FPTDERSWVYSPLHSS [chain 1 Y15S] | 0.000401
chain 1 FPTDERSWVYSPLHTS [chain 1 Y15T] | 0.000245
chain 1 FPTDERSWVYSPLHVS [chain 1 Y15V] | 0.000186
chain 1 FPTDERSWVYSPLHWS [chain 1 Y15W] | 0.000911

Variants of: B2
Assay: as above
Details: with MDM2 SWIB (MDM2 SWIB/MDM2 domain, residues 17-125); bait immobilised on MaxiSorp plates (10 µg), library pre-cleared on GST, 2 h binding at 4 °C, five washes; one round per day, days 1-4; value from days 2 and 3; keep out of graded; scale: average fractional NGS count over selection days 2 and 3

Variant | screen value
chain 1 A6F | 0.000296
chain 1 A6N | 0.000134
chain 1 A6P | 3.8e-05
chain 1 A6R | 0
chain 1 A6T | 0.00014
chain 1 A6Y | 0.000156
chain 1 D13K | 0
chain 1 E7G | 0
chain 1 E7L | 7.08e-05
chain 1 E7S | 0
chain 1 E7W | 5.37e-05
chain 1 E7Y | 0
chain 1 F5A | 0
chain 1 F5D | 0
chain 1 F5K | 0
chain 1 F5N | 0
chain 1 F5R | 0
chain 1 G10E | 8.15e-05
chain 1 G10F | 3.49e-05
chain 1 G10H | 5.57e-05
chain 1 G10K | 0
chain 1 G10R | 2.89e-05
chain 1 G10V | 7.22e-05
chain 1 H4R | 1.9e-05
chain 1 H4W | 2.47e-05
chain 1 H14D | 2.82e-05
chain 1 H14K | 0.000119
chain 1 L8A | 0

From paper PMC12102759
